Data: patent US7083786

T1: human complement factor C4, P0C0L4
T1 chain: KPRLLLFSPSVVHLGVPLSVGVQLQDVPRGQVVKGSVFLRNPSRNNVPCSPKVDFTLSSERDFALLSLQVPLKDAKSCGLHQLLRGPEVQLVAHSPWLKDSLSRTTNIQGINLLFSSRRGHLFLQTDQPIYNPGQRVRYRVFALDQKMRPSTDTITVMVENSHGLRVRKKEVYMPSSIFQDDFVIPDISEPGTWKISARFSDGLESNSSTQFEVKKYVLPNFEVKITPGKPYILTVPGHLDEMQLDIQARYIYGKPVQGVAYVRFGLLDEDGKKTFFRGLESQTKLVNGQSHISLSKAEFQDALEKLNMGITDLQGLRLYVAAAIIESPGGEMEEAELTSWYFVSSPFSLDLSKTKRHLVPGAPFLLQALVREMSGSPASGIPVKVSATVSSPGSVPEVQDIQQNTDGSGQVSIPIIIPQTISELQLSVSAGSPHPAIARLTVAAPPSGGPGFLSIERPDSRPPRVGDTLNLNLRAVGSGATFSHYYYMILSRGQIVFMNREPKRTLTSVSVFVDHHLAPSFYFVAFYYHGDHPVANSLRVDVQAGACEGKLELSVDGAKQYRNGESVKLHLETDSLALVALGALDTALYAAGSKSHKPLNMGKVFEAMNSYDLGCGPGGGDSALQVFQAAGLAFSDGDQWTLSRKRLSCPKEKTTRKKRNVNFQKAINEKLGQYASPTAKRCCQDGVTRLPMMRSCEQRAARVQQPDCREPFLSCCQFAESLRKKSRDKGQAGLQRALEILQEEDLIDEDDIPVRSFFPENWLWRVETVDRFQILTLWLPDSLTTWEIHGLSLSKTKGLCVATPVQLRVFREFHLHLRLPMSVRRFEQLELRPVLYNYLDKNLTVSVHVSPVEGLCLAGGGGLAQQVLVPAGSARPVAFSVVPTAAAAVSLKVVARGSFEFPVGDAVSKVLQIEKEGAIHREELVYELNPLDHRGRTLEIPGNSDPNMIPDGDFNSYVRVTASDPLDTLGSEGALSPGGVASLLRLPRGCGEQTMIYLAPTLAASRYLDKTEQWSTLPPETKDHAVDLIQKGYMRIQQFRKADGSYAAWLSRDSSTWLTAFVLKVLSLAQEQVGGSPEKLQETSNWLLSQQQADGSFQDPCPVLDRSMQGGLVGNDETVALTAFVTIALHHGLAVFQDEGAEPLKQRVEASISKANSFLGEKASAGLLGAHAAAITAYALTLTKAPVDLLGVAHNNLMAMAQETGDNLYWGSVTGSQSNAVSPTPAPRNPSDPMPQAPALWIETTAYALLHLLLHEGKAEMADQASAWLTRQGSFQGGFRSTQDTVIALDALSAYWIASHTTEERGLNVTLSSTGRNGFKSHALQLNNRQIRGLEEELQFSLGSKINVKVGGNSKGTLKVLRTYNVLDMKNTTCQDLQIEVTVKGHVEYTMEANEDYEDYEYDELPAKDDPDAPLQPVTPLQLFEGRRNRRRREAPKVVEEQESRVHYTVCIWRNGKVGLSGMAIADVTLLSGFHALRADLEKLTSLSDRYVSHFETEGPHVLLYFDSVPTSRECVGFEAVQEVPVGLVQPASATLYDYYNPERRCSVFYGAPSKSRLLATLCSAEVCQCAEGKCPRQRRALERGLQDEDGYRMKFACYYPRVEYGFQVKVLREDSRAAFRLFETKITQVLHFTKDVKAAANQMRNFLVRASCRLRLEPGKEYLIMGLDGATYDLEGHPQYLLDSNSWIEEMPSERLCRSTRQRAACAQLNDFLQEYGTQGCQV


Biological target: T1, human complement factor C4, P0C0L4

Row | Protein | C4 deposition on a Western blot incubated with human serum (C4 activation)
1 | C1s from human serum C1 (protein) EPTMYGEILSPNYPQAYPSEVEKSWDIEVPEGYGIHLYFTHLDIELSENCAYDSVQIISGDTEEGRLCGQRSSNNPHSPIVEEFQVPYNKLQVIFKSDFSNEERFTGFAAYYVATDINECTDFVDVPCSHFCNNFIGGYFCSCPPEYFLHDDMKNCGVNCSGDVFTALIGEIASPNYPKPYPENSRCEYQIRLEKGFQVVVTLRREDFDVEAADSAGNCLDSLVFVAGDRQFGPYCGHGFPGPLNIETKSNALDIIFQTDLTGQKKGWKLRYHGDPMPCPKEDTPNSVWEPAKAKYVFRDVVQITCLDGFEVVEGRVGATSFYSTCQSNGKWSNSKLKCQPVDCGIPESIENGKVEDPESTLFGSVIRYTCEEPYYYMENGGGGEYHCAGNGSWVNEVLGPELPKCVPVCGVPREPFEEKQRIIGGSDADIKNFPWQVFFDNPWAGGALINEYWVLTAAHVVEGNREPTMYVGSTSVQTSRLAKSKMLTPEHVFIHPGWKLLEVPEGRTNFDNDIALVRLKDPVKMGPTVSPICLPGTSSDYNLMDGDLGLISGWGRTEKRDRAVRLKAARLPVAPLRKCKEVKVEKPTADAEAYVFTPNMICAGGEKGMDSCKGDSGGAFAVQDPNDKTKFYAAGLVSWGPQCGTYGLYTRVKNYVDWIMKTMQENSTPRED | C4 deposition, which could be inhibited by enzyme inhibitors, was observed at a position corresponding to C1r and C1s, which are not separated by the technique employed
2 | mannan-binding lectin associated serine protease-2 (MASP-2), 76 kDa protein from human plasma (protein) TPLGPKWPEPVFGRLASPGFPGEYANDQERRWTLTAPPGYRLRLYFTHFDLELSHLCEYDFVKLSSGAKVLATLCGQESTDTERAPGKDTFYSLGSSLDITFRSDYSNEKPFTGFEAFYAAEDIDECQVAPGEAPTCDHHCHNHLGGFYCSCRAGYVLHRNKRTCSALCSGQVFTQRSGELSSPEYPRPYPKLSSCTYSISLEEGFSVILDFVESFDVETHPETLCPYDFLKIQTDREEHGPFCGKTLPHRIETKSNTVTITFVTDESGDHTGWKIHYTSTAQPCPYPMAPPNGHVSPVQAKYILKDSFSIFCETGYELLQGHLPLKSFTAVCQKDGSWDRPMPACSIVDCGPPDDLPSGRVEYITGPGVTTYKAVIQYSCEETFYTMKVNDGKYVCEADGFWTSSKGEKSLPVCEPVCGLSARTTGGRIYGGQKAKPGDFPWQVLILGGTTAAGALLYDNWVLTAAHAVYEQKHDASALDIRMGTLKRLSPHYTQAWSEAVFIHEGYTHDAGFDNDIALIKLNNKVVINSNITPICLPRKEAESFMRTDDIGTASGWGLTQRGFLARNLMYVDIPIVDHQKCTAAYEKPPYPRGSVTANMLCAGLESGGKDSCRGDSGGALVFLDSETERWFVGGIVSWGSMNCGEAGQYGVYTKVINYIPWIENIISDF | C4 was deposited at a position corresponding to the MASP-2 band
3 | MASP-1 (MBP-associated serine protease) from human plasma (protein) HTVELNNMFGQIQSPGYPDSYPSDSEVTWNITVPDGFRIKLYFMHFNLESSYLCEYDYVKVETEDQVLATFCGRETTDTEQTPGQEVVLSPGSFMSITFRSDFSNEERFTGFDAHYMAVDVDECKEREDEELSCDHYCHNYIGGYYCSCRFGYILHTDNRTCRVECSDNLFTQRTGVITSPDFPNPYPKSSECLYTIELEEGFMVNLQFEDIFDIEDHPEVPCPYDYIKIKVGPKVLGPFCGEKAPEPISTQSHSVLILFHSDNSGENRGWRLSYRAAGNEPELQPPVHGKIEPSQAKYFFKDQVLVSCDTGYKVLKDNVEMDTFQIECLKDGTWSNKIPTCKIVDCRAPGELEHGLITFSTRNNLTTYKSEIKYSCQEPYYKMLNNNTGIYTCSAQGVWMNKVLGRSLPTCLPVCGLPKFSRKLMARIFNGRPAQKGTTPWIAMLSHLNGQPFCGGSLLGSSWIVTAAHCLHQSLDPKDPTLRDSDLLSPSDFKIILGKHWRLRSDENEQHLGVKHTTLHPKYDPNTFENDVALVELLESPVLNAFVMPICLPEGPQQEGAMVIVSGWGKQFLQRFPETLMEIEIPIVDHSTCQKAYAPLKKKVTRDMICAGEKEGGKDACSGDSGGPMVTLNRERGQWYLVGTVSWGDDCGKKDRYGVYSYIHHNKDWIQRVTGVRN | no C4 deposition was observed at positions corresponding to MASP-1
4 | C1r from human serum C1 (protein) SIPIPQKLFGEVTSPLFPKPYPNNFETTTVITVPTGYRVKLVFQQFDLEPSEGCFYDYVKISADKKSLGRFCGQLGSPLGNPPGKKEFMSQGNKMLLTFHTDFSNEENGTIMFYKGFLAYYQAVDLDECASRSKSGEEDPQPQCQHLCHNYVGGYFCSCRPGYELQEDRHSCQAECSSELYTEASGYISSLEYPRSYPPDLRCNYSIRVERGLTLHLKFLEPFDIDDHQQVHCPYDQLQIYANGKNIGEFCGKQRPPDLDTSSNAVDLLFFTDESGDSRGWKLRYTTEIIKCPQPKTLDEFTIIQNLQPQYQFRDYFIATCKQGYQLIEGNQVLHSFTAVCQDDGTWHRAMPRCKIKDCGQPRNLPNGDFRYTTTMGVNTYKARIQYYCHEPYYKMQTRAGSRESEQGVYTCTAQGIWKNEQKGEKIPRCLPVCGKPVNPVEQRQRIIGGQKAKMGNFPWQVFTNIHGRGGGALLGDRWILTAAHTLYPKEHEAQSNASLDVFLGHTNVEELMKLGNHPIRRVSVHPDYRQDESYNFEGDIALLELENSVTLGPNLLPICLPDNDTFYDLGLMGYVSGFGVMEEKIAHDLRFVRLPVANPQACENWLRGKNRMDVFSQNMFCAGHPSLKQDACQGDSGGVFAVRDPNTDRWVATGIVSWGIGCSRGYGFYTKVLNYVDWIKKEMEEED | C4 deposition, which could be inhibited by enzyme inhibitors, was observed at a position corresponding to C1r and C1s, which are not separated by the technique employed
